Measurements as given in the DeepSol protein solubility set.

Experiment: soluble on expression in E. coli; label from the status in PepcDB or PDB records

Sequence	soluble on expression in E. coli
GMSVKVSVDDIDGITEVLNVYMNAAESGTGEEMSAAFHKDATIFGYVGDKLAFNGPIKDLYDWHNSNGPAKNVQSRITNIDIVGTVAHARVEAENWTNFKFSDLFLLLKLDGKWTIVNKVFHLHA	soluble
MSKDLVHPSLIRAGIVELEMAEETTDLINRTIESNQAHLQGEPLYVDSLPEDMSRLRIEDKSRRTKTEEEERDEGSSEEDNYLSEGQDPLIPFQNFLDEIGARAVKRLKTGEGFFRVWSALSDDIKGYVSTNIMTSGERDTKSIQIQTEPTASVSSGNESRHDSESMHDPNDKKDHTPDHDVVPDIESSTDKGEIRDIEGEVAHQVAESFSKKYKFPSRSSGIFLWNFEQLKMNLDDIVKAAMNVPGVERIAEKGGKLPLRCILGFVALDSSKRFRLLADNDKVARLIQEDINSYMARLEEAE	soluble
MMNLRSIAMNKPDLVIFFDGQCPLCCNEMRALKTADHQARILLVDVHDTDTMSCYPSIDKQRALSILHGIDQQGQLLYGLDVTVLAWRLVNRHRWLFITRMPILKGISDRMYLLFAKHRMRLSRWFGQTQCQEGVCQKKLEHHHHHH	soluble
MKMYEVKEFSSGKRKLEDYKSIIGEEEVSKIQEKAEKLKGRSFVHVNSTSFGGGVAEILHSLVPLLRSIGIEARWFVIEGPTEFFNVTKTFHNALQGNESLKLTEEMKELYLNVNRENSKFIDLSSFDYVLVHDPQPAALIEFYEKKSPWLWRCHIDLSSPNREFWEFLRRFVEKYDRYIFHLPEYVQPELDRNKAVIMPPSIDPLSEKNVELKQTEILRILERFDVDPEKPIITQVSRFDPWKGIFDVIEIYRKVKEKIPGVQLLLVGVMAHDDPEGWIYFEKTLRKIGEDYDVKVLTNLIGVHAREVNAFQRASDVILQMSIREGFGLTVTEAMWKGKPVIGRAVGGIKFQIVDGETGFLVRDANEAVEKVLYLLKHPEVSKEMGAKAKERVRKNFIITKHMERYLDILNSLGGLEHHHHHH	soluble
MNRVQSGFRVPARVLNSLAHLQDGLNIFMDPDWRQIRHVDDWALAITMESAELIDSYPWKWWKNVKAQTDMHNVRIEIADILHFSLSGEIQKRTQDEKGADDVALKSLKEMGFFCRPPAHAKSTAASGQRTNGGDGDGDDELLELMFFPLTEVASAVATFRNIIQLASIYRFDLITKGLLLAAQDLDFNLVGYYVAKYTLNQIRQLKGYKEGVYVKVREGVEDNELLHECVQSVSVEDVLNEGTYLKAWEKIACSVFDAFGMPEEERRHAYDWLKSAALDGKG	soluble
MEEGDIVGILKVFFVRTGAIGKRLGFKAGDIRIREEIVQANLTWKEDGEIRRERIKTRFFGYFRSHVAEWEPVIAAESVDVERGEVARIKIKEITLPEYTVITPLFIRRHALGSLIDVVQQGKRRKVEEKKRIGEAIFLPARSGRVEKGDLLGVINVYYIATENFSVGRREKDEVLAKVVDERGRKEFRIKPFAYRRKTIARWEPIVAAENRKVRKGEVEEIAIEPISLEENTIVYPLYVMRNAFGSVVDVVEERPRRVEERREIIKAVFLPVFDGEIRKGQLLGVMNVYSIEVQPYEVIWRWLEEWQGEFRRLFAEVVGLEHHHHHH	soluble
MFGGDTLYELRCSLQLAETEREGGFSPHISPFTAVNDLGHLLGRAGFNTLTVDTDEIQVNYPGMFELMEDLKGMGESNCSWNRKALLHRDTMLAAAAVYREMYRNEDGSIPATFQIYHMIGWKYHDSQARPAERGSATVSFGELAKLNDVMSHEKK	soluble
AGTHDYSTALKDSIIFFDANKCGPQAGENNVFDWRGACHTTDGSDVGVDLTGGYHDAGDHVKFGLPQGYSAAILGWSLYEFKESFDATGNTTKMLQQLKYFTDYFLKSHPNSTTFYYQVGEGNADHTYWGAPEEQTGQRPSLYKADPSSPASDILSETSAALTLMYLNYKNIDSAYATKCLNAAKELYAMGKANQGVGNGQSFYQATSFGDDLAWAATWLYTATNDSTYITDAEQFITLGNTMNENKMQDKWTMCWDDMYVPAALRLAQITGKQIYKDAIEFNFNYWKTQVTTTPGGLKWLSNWGVLRYAAAESMVMLVYCKQNPDQSLLDLAKKQVDYILGDNPANMSYIIGYGSNWCIHPHHRAANGYTYANGDNAKPAKHLLTGALVGGPDQNDKFLDDANQYQYTEVALDYNAGLVGVLAGAIKFFGGTIVNPPVKK	soluble
MMSAYNKLVRDRVPEKILMSGKTYTAQKLTGQAYIQALAKIGTEEIREFASMKEREHALDSLADALEVIISLARAEGASIEDVERLRKQKEIERGGFERGIYLLDVSEE	not soluble
MGSDKIHHHHHHGCSDDFKSGLRLDGDVWVNSIRLDEYAGTVDYQNKAIVVGVPYDYDITRMVVTEMNLSEGAKASIAIGETIDFSLPVSLTVKNGDVQMSYTITVKRDEAKILTFKLNDTYVGKVDQLSKTISVVVPLTVDITQLKGTFTVTDGATVTPASGSIQDFTNPVTYTATYRSAVTPYVVTVTQGNVIPTAFVGTASSVSLLTSPEEKAAAQWMMDNVSMSEYISFKDVVDGKVDLGKYTAIWWHFHADNGDNPPLPDDAKAAAEKFKVYYQNGGNLLLTRYATFYIANLGIAKDERVPNNSWGGNEDSPEITSAPWSFLITGSESHPLFQDLRWKDGDKSTVYTCDAGYAITNSTAQWHIGTDWGGYDDLNAWRNLTGGIDLAHGGDGAVVIAEFEPRSNSGRTLCIGSGCYDWYGKGVDASADYYHYNVEQMTLNAINYLCK	not soluble
SADREGSVRVVGTAHVSSDSVEEVERVIDDEHPDTVAVELDEGRFRQMQGDAPDDLDATDLLKGSMAFQFLAYWLLSYAQRRLGEKFGIEPGADMQAAVDAANTAGADVALVDRDIQVTIQRFWARMSLPEKLRMGGELALGVTDSLTL	not soluble
MAHHHHHHMPLTDEIQLEQLAPTIKGDASWSTGPIYVVCDVGGTNARVGFARAAQHEGSGLHIIYVRFRVTKRDIRQLLEFFDEVLQHLKKNLPYRAGPFLRRVASGAVSVPGPLTNGQLAGPFSNLKGIARLADYPVELFPRGRSALLNDLEAGSYGVLALSNAGMLSDYFKVMWKGTQWDALSEGKPVGSTIGHGRCMVVAPGTGVGSSLIHYVGVSDSYVVLALECGCLSMSWCANEDSKYVQALAGYMASKARVKGLDSTVAPIWEAAANGSGLEFNYAYEKEGPKASAPLKSAPEVAKLAKAGSDPAAVAAMDRLYKNLIGLTAETTMQFLPLTCVLMGDSIVSNSFYFDNPENVKKLQARINEHTMERQLKFLSRTTFLRQVRSVNINLLGCLEFGSQLSNRADQLAPTKSNL	not soluble
MAHHHHHHMSPVIALHEDLQKRLEEYRSTRGFSPVKWIEQKCAALNEYMASHGLKVCVTSVSGGIDSAVVLALCSRAMRMPNSPIVRNVGICQPICSSAWALARGRENIQSCGALEVIVDQTELYKQLSRIVETAVGIDGQNFARGQLRSYMRTPVAYYVAQLYSQEGNAAIVMGTGNMDEDGYLAYFCKAGDGVVDVQLISDLHKSEVFRVARELGVPANTLQASPSADLWEGQTDEEELGFPYDFVELYTGWCLQLSDEERQSFLHSLSSDARQQYEKYKDACENTHRRNAHKLRGPINL	soluble
GQLVESGGGSVQAGGSLRLSCAASGIDSSSYCMGWFRQRPGKEREGVARINGLGGVKTAYADSVKDRFTISRDNAENTVYLQMNSLKPEDTAIYYCAAKFSPGYCGGSWSNFGYWGQGTQVTVSSH	soluble
MNGKVIIVTGGSSGMGKYMAKRFVSDGANVVITGRRAEALEEAKREIAAPDGGKVLTIPMDVRNPEQVAHMVERTDAEFGRIDALINNAAGNFICPAEKLSINGWNSVINIVLNGTFYCSREVGNYWIQRGLKGNIINIVATYAWHAGAGVIHSASAKAGVLAMTRTLAVEWGKKYGFRVNAIAPGPIERTGGAERLWESEEAERMTLESVPLGRLGTPEEIAAVASFLLSDEAAYINGACITVDGGQWLNRRPF	soluble
MGHHHHHHSHGTRVTLRFQMKMFESADSTATRSGQDLWAEICSCLPNPEQEDGANNAFSDSFVDSCPEGEGQREVADFAVQPAVKPWAPLQDSEVYLASLEKKLRRIKGLNQEVTSKDMLRTLAQAKKECWDRFLQEKLASEFFVDGLDSDESTLEHFKRWLQPDKVAVSTEEVQYLIPPESQVEKPVAEDEPAAGDKPAAAEQ	soluble
MSLSSQPRFIHLRTHTDFSMIDSIVKVKPLVKACAANEMVAMGLTDFTNFCGVVSFYSEMLSSGMKPIIGADVKVKSPLCGDEYFDLTLLAKNNEGYRNITLLLSKAYQRGYNDLPYIDQDWLIEHRDGVIILSGGTQGDVGKKLLKENVAEIESAVAFYQEFFADHFYLALSRTGRPNEERYIQAALKLAERCDLPLVATNDVMFLNTEDFEAHEIRVAIHDGYTLDDPKRPKCYTSQQYFRSEEDMCKLFADEGHHHHHH	soluble
MGSDKIHHHHHHMATLLTLLLLFATPIAIRAEEFVWPEPSNAIERKFEKAALTSDNAACSKIGGEILRKGGNSIDASIASMFCLGVVNPQSSGIGGGFLMTYFDQKSGDCYSIDARETAPAAASRDMFLNDSDGSKYGFKAAGTPGEIAGYWHIFKKFGSGKVTWKELVQPSVKLAREGHPVSPYLATVMKVKERHFRLFPSVKASSIKLSMFYRHWINPETNDTYQSGDLLKRPKLAKTLERLGNSPNPVQLFYHGEMAKTLAKEFQEGGGLITEQDLANYKVREYVNSNSNDHFRGTLTMCGGPPPSSFGVTQLIVSAMSKLFPEGHKDDIYNDPKVLHKYIEAMKFAYAQRTLLGDHDFVKGALELSKNLTTPEYTQWVIDRMTDKAQSSKNYGGIAQYVPPDHGTSHVSAMDQYGNGVSATTTINRWFGAAVESSEYGILWNDEMDDFSTPGMENGFGFAPSETNFIEPGKRPMSSMSPMVIFDHVTKKVRMVIGGSGGSKIISALAKSIVRSLIFHDSIKKAIDAPMIHNQFTPDITQLDDEFPINMKNILESEYLQKFRNTTGFEGIIQGVNVLNDGIYACGDYRRKTDQEPSGF	not soluble
MTLLNSRRAAGAFATTLVASTLGLSGCTSVTSSATSSPEPPTKVAAAMQTTTGETSISNETSFNASRETSLTALGFLDYLDEEQRAALLGEGLDISTLTWANQVTALRVLESLFNEHAYELVSAVIQHVAQEPGDNPHHFLKFSPEPSTENSWELTLDGPTVGLKVTFDPDGQITFKDAHLGLSPAEVVSVTEALDTSYSESQIKKAAEQLVGSLNPTQQAALQGSGLRGAQLTEEQKTLFLKMTSNWIDLANGDSGSEQQEEIADTFSDTYIIWNEQKDGSAFFQMKGPELDFSYKESVPENAELSARGVPNIQTSFQSPLEHHHHHH	not soluble
MTAHPPRPELQIDIVSDVVCPWCIVGFRQLDQALAATGVLARLRWHPFELNPQMGPEGQNLREHIMEKYGSTPEQSAEARARLTAIGAELGFTFNFTDDSRIVNTFAAHQLLDWAEGQGRQHPLKQALFAAYFTDGRDVSDLSVLLDAVEAAGLDREAAQTALTSGAHQAPVREKQKFWAQHGISGVPSMVFGGKYLLTGAQGADTYAQVIQRCLAEAA	not soluble
MHHHHHHSSGVDLGTENLYFQSMAARVLIIGSGGREHTLAWKLAQSHHVKQVLVAPGNAGTACSEKISNTAISISDHTALAQFCKEKKIEFVVVGPEAPLAAGIVGNLRSAGVQCFGPTAEAAQLESSKRFAKEFMDRHGIPTAQWKAFTKPEEACSFILSADFPALVVKASGLAAGKGVIVAKSKEEACKAVQEIMQEKAFGAAGETIVIEELLDGEEVSCLCFTDGKTVAPMPPAQDHKRLLEGDGGPNTGGMGAYCPAPQVSNDLLLKIKDTVLQRTVDGMQQEGTPYTGILYAGIMLTKNGPKVLEFNCRFGDPECQVILPLLKSDLYEVIQSTLDGLLCTSLPVWLENHTALTVVMASKGYPGDYTKGVEITGFPEAQALGLEVFHAGTALKNGKVVTHGGRVLAVTAIRENLISALEEAKKGLAAIKFEGAIYRKDIGFRAIAFLQ	soluble
